{
  "source": "patent US20040208887A1",
  "about": "(MOLECULES OF MAN, published 2004)",
  "key": {"[1]": {"target": "T1, recombinant soluble HCV E1 protein (hepatitis C virus)", "T1 construct": "It is not the cell-surface E1-myc construct (aa 174-359 of H77c) that was used for phage selection; also called recombinant E1; soluble E1 protein", "assay": "ELISA, recombinant E1 captured on GNA lectin; crude periplasmic Fab"}, "[2]": {"target": "T2, recombinant E1/E2 heterodimer protein (genotype 1a) (hepatitis C virus genotype 1a, UniProt P26664 192-383; P26664 384-746, limits assumed)", "T2 construct": "also called E1/E2 in complex; recombinant E1/E2 antigen", "T2 sequence (P26664 192-383 limits assumed, chain 1 of 2)": "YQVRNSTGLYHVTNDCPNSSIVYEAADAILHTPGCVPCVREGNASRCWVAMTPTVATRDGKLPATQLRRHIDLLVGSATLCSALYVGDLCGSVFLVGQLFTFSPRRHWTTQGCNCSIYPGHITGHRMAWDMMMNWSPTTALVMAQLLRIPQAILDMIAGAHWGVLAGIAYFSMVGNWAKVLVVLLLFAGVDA", "T2 sequence (P26664 384-746 limits assumed, chain 2 of 2)": "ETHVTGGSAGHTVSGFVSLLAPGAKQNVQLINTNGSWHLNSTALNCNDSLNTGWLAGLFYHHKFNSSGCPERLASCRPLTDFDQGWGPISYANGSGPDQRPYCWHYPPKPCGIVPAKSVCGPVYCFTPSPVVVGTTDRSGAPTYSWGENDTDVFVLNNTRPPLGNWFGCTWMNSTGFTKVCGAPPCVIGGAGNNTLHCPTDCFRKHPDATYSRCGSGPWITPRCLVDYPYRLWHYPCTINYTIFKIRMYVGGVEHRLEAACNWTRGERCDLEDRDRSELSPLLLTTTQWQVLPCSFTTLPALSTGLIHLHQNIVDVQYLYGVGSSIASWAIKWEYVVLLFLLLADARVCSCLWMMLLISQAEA", "assay": "ELISA, E1/E2 heterodimer coated; crude periplasmic Fab"}},
  "data": [
    {"binder": "Fab clone 2b-4 (Fab, V domains shown, Human Fab (gamma1 Fd + kappa), crude periplasmic preparation, approx. 0.68 ug Fab/ml) VH: EVQLLESGGEVKKPGSSVKVSCKASGGPFSSYAIHWVRQAPGQGLEWMGAIIPFLGRAKYAQKFEGRVTITADGSMSTAYMEVSSLRSDDTAMYYCARDRGELLLRMDVWGQGTAVTVSS VL: AELTQSPAFMSATPGDKVNISCKASQDIDDDMNWYQQKPGEAAIFIIQEATTLVPGIPPRFSGSGYGTDFTLTINNIESEDAAYYFCLQHDNFPLTFGQGTKVEIK", "values": [
      {"measurement": "OD405 nm", "setting": "[1]", "result": 0.11, "unit": "OD405 nm"},
      {"measurement": "OD405 nm", "setting": "[2]", "result": 0.09, "unit": "OD405 nm"}
    ]},
    {"binder": "Fab clone 1:4 (Fab, V domains shown, Human Fab (gamma1 Fd + kappa), crude periplasmic preparation, approx. 0.01 ug Fab/ml) VH: EVQLLESGPGLVKPSETLSLTCTVSNGSMSNYCWSWIRQSPGKGLEWIGYIYYSGSTSYNPSLRSRVALLVDTSKNQFSLKLTSVTTADTAVYYCARDLSARGGTRNRDALDVWGQGTQVTVSA VL: not shown", "values": [
      {"measurement": "OD405 nm", "setting": "[1]", "result": 0.78, "unit": "OD405 nm"},
      {"measurement": "OD405 nm", "setting": "[2]", "result": 0.67, "unit": "OD405 nm"}
    ]},
    {"binder": "Fab clone 2b-5 (Fab, V domains shown, Human Fab (gamma1 Fd + kappa), crude periplasmic preparation, approx. >1.0 ug Fab/ml) VH: EVQLLESGGGVVQPGRSLRLSCAASGFTLSTYAMHWVRQAPGRGLEWVAVISYDGDHKFYADSMKGRFAISRDTSTNTLYLEVNSLKIEDTAVYYCARDRDRRGGYVFSTTGGLDSWGQGTLVTVSS VL: AELTQSPLSLAVTPGEPASISCRTSQSLLHSNGYTYLDWYLQKPGQSPQLLIYLASNRASGVPDRFSGSGSGTDFTLEISRVEAEDVGVYYCMQPLQTPVTFGQGTKVEVK", "values": [
      {"measurement": "OD405 nm", "setting": "[1]", "result": 2.21, "unit": "OD405 nm"},
      {"measurement": "OD405 nm", "setting": "[2]", "result": 1.4, "unit": "OD405 nm"}
    ]},
    {"binder": "Fab clone 2b-7 (Fab, V domains shown, Human Fab (gamma1 Fd + kappa), crude periplasmic preparation, approx. 0.54 ug Fab/ml) VH: VQLLEQSGAEVKKPGESLKISCRASGYSFSLFWVAWVRQMPGQGLEWMAIIYPGDSDTTYSPSFEGQVNVSVDKPISTAYLQWSSLKASDTAMYYCARRRSSDRRDAFDIWGPGTMVTVSS VL: AELTQSPAFMSATPGDKVNISCKASQDIDDDMNWYQQKPGEAAIFIIQEATTLVPGIPPRFSGSGYGTDFTLTINNIESEDAAYYFCLQHDNFPLTFGQGTKVEIK", "values": [
      {"measurement": "OD405 nm", "setting": "[1]", "result": 0.47, "unit": "OD405 nm"},
      {"measurement": "OD405 nm", "setting": "[2]", "result": 0.32, "unit": "OD405 nm"}
    ]},
    {"binder": "Fab clone 2b-10 (Fab, V domains shown, Human Fab (gamma1 Fd + kappa), crude periplasmic preparation, approx. >1.0 ug Fab/ml) VH: EVQLLESGGGVVQPGRSLKLSCTASTFTFTNYAMHWVRQAPGKGLEWVALISNDGSKTYYTDSVRGRFTISRDNSKNTLFLQMNSLRTEDTAVYHCARVKLQGSFNVYYYYGLDVWGQGTTVTVSS VL: AELTQSPLSLPVTPGEPASISCRSSQSLLHSDGYNYFDWYLQKPGQSPQLLIYLGSNRASGVPDRFSGSGSDTDFTLKISRVEAEDVGVYYCMQTLQTLTFGGGTKLEIK", "values": [
      {"measurement": "OD405 nm", "setting": "[1]", "result": 0.48, "unit": "OD405 nm"},
      {"measurement": "OD405 nm", "setting": "[2]", "result": 0.11, "unit": "OD405 nm"}
    ]}
  ]
}
